Experimental data published in US20130315910A1 (Xencor, published 2013).
Substitutions are numbered along the chain they refer to. Names and notes keep the numbering of the source.

T1: cynoFcγRIIb (Macaca fascicularis, UniProt A0A140HDP4)
T1 construct: extracellular region, C-terminal His- and GST-tag; also called cynomolgus monkey FcγRIIb
T1 sequence (receptor extracellular region): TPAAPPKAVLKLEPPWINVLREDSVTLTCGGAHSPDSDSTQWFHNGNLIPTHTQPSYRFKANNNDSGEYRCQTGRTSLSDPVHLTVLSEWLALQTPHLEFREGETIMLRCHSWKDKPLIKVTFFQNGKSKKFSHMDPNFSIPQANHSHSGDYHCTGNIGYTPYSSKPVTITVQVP

T2: mFcγRIIb (Mus musculus, UniProt P08101)
T2 construct: extracellular region, C-terminal His- and GST-tag; also called mouse FcγRII
T2 sequence (receptor extracellular region, looked up): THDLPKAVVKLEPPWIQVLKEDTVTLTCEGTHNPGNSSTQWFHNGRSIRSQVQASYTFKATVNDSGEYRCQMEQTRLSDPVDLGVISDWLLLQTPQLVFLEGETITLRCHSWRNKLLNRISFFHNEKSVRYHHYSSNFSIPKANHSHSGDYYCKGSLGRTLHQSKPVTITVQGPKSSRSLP

T3: mFcγRIV
T3 construct: also called mouse FcγRIV; not shown: C-terminal His and GST tags (named only on our card)
T3 chain: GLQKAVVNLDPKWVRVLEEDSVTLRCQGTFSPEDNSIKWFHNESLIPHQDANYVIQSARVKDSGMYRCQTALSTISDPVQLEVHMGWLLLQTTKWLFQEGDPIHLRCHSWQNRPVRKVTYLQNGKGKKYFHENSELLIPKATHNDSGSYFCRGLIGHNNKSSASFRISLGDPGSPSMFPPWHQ

T4: human FcγRIIb receptor protein (R&D Systems) (human, UniProt P31994 46-217)
T4 construct: Bought protein injected over captured antibody in Biacore; also called CD32b
T4 sequence (looked up): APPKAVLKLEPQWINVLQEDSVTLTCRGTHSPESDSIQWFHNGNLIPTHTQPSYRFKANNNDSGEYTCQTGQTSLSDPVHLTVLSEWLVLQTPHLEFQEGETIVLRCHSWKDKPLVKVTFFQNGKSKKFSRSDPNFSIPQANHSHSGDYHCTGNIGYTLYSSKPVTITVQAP

T5: human FcγRIIa (131R), His- and GST-tagged (human, UniProt P12318 34-217)
T5 construct: Expressed in HEK293T cells, purified by nickel chromatography; also called R131 FcγRIIa; not shown: 6xHis and GST tags of the pTT5 vector
T5 sequence (looked up): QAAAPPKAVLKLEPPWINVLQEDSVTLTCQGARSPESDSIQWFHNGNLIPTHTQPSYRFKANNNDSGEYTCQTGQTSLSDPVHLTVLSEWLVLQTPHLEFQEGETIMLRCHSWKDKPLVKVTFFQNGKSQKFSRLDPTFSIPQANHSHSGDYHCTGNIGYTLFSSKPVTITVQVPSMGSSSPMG

T6: human FcγRIIa (131H), His- and GST-tagged (human, UniProt P12318 34-217)
T6 construct: also called H131 FcγRIIa; HIIa; not shown: 6xHis and GST tags of the pTT5 vector
T6 sequence (looked up): T5 sequence (looked up) with R134H

B1: G236S (antibody, human IgG1, kappa)
heavy: not shown
light: DIVMTQSPATLSLSPGERATLSCRSSKSLQNVNGNTYLYWFQQKPGQSPQLLIYRMSNLNSGVPDRFSGSGSGTEFTLTISSLEPEDFAVYYCMQHLEYPITFGAGTKLEIKRTVAAPSVFIFPPSDEQLKSGTASVVCLLNNFYPREAKVQWKVDNALQSGNSQESVTEQDSKDSTYSLSSTLTLSKADYEKHKVYACEVTHQGLSSPVTKSFNRGEC
notes: HuAM4G7 anti-CD19 IgG1 (m1) with this Fc substitution, EU index; copies: 2 + 2
B2: H268Q (antibody, human IgG1, kappa)
heavy: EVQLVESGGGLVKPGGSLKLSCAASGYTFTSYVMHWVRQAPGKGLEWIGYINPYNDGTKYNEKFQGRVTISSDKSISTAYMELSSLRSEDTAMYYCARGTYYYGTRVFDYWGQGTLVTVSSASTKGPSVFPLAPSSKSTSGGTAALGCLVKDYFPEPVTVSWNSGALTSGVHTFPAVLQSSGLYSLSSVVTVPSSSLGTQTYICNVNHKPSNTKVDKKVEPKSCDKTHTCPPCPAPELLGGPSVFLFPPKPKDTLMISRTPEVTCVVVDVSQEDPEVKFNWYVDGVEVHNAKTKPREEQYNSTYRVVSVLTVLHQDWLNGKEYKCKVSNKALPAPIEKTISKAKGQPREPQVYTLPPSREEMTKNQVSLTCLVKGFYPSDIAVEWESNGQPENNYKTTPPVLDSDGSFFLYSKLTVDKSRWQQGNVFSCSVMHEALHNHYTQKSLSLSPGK
light: B1 light
notes: as for B1
B3: S239D/S267E/L328F (antibody, human IgG1, kappa)
heavy: EVQLVESGGGLVKPGGSLKLSCAASGYTFTSYVMHWVRQAPGKGLEWIGYINPYNDGTKYNEKFQGRVTISSDKSISTAYMELSSLRSEDTAMYYCARGTYYYGTRVFDYWGQGTLVTVSSASTKGPSVFPLAPSSKSTSGGTAALGCLVKDYFPEPVTVSWNSGALTSGVHTFPAVLQSSGLYSLSSVVTVPSSSLGTQTYICNVNHKPSNTKVDKKVEPKSCDKTHTCPPCPAPELLGGPDVFLFPPKPKDTLMISRTPEVTCVVVDVEHEDPEVKFNWYVDGVEVHNAKTKPREEQYNSTYRVVSVLTVLHQDWLNGKEYKCKVSNKAFPAPIEKTISKAKGQPREPQVYTLPPSREEMTKNQVSLTCLVKGFYPSDIAVEWESNGQPENNYKTTPPVLDSDGSFFLYSKLTVDKSRWQQGNVFSCSVMHEALHNHYTQKSLSLSPGK
light: B1 light
notes: HuAM4G7 anti-CD19 IgG1 (m1) with these Fc substitutions, EU index; copies: 2 + 2
B4: S239D/S267D (antibody, human IgG1, kappa)
heavy: not shown
light: B1 light
notes: as for B3
B5: S267E/A327D (antibody, human IgG1, kappa)
heavy: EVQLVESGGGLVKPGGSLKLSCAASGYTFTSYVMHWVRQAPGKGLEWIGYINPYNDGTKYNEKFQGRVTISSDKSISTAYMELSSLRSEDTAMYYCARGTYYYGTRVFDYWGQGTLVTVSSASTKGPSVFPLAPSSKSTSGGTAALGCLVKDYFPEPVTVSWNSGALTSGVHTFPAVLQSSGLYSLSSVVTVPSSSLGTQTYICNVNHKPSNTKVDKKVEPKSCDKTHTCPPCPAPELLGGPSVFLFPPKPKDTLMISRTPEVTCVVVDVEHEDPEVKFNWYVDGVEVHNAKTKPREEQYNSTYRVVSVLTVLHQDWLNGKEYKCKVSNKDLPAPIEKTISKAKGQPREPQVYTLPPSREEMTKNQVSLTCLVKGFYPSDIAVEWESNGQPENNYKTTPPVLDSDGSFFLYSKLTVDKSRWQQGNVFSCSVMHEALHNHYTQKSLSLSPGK
light: B1 light
notes: as for B3
B6: H268D/A327D (antibody, human IgG1, kappa)
heavy: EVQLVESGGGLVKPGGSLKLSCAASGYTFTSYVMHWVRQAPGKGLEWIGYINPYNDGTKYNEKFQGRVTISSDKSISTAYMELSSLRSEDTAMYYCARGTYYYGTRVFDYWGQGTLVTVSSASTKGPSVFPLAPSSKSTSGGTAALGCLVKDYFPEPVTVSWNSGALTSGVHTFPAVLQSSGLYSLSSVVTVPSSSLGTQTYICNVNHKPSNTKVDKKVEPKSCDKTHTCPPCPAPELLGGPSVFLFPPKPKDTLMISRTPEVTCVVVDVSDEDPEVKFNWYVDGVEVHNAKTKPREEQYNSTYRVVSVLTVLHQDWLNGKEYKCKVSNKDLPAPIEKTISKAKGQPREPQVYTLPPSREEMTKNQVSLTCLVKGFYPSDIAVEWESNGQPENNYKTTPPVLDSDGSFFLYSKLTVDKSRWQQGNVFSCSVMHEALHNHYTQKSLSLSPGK
light: B1 light
notes: as for B3
B7: S267E/H268E/L328F (antibody, human IgG1, kappa)
heavy: B3 heavy with D243S, H272E
light: B1 light
notes: as for B3
B8: D265E (antibody, human IgG1, kappa)
heavy: not shown
light: B1 light
notes: as for B1
B9: S267E/L328Q (antibody, human IgG1, kappa)
heavy: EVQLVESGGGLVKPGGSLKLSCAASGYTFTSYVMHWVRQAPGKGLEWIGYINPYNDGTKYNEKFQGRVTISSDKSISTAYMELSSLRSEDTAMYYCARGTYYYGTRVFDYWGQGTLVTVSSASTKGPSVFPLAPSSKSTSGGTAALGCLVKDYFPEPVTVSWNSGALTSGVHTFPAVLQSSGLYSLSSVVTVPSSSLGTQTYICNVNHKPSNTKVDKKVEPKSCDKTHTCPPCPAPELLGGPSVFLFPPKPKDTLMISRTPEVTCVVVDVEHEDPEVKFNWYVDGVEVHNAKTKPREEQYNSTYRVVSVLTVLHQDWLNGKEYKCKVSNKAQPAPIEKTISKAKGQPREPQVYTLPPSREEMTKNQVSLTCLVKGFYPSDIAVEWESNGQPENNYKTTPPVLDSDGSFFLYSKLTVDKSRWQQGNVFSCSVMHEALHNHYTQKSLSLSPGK
light: B1 light
notes: as for B3
B10: S267D/H268D (antibody, human IgG1, kappa)
heavy: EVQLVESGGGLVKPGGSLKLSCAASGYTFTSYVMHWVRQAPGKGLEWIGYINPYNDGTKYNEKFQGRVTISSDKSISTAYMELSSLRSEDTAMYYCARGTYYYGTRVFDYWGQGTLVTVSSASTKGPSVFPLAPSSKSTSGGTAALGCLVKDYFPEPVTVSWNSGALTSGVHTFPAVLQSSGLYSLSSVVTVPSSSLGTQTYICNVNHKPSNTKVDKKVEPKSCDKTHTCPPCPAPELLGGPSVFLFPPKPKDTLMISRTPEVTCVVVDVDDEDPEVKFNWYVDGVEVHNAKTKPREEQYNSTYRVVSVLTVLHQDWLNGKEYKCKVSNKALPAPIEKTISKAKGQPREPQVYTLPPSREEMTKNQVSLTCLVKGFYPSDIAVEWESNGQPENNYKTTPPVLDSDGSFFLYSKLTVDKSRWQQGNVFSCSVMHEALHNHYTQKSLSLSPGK
light: B1 light
notes: as for B3
B11: H268N (antibody, human IgG1, kappa)
heavy: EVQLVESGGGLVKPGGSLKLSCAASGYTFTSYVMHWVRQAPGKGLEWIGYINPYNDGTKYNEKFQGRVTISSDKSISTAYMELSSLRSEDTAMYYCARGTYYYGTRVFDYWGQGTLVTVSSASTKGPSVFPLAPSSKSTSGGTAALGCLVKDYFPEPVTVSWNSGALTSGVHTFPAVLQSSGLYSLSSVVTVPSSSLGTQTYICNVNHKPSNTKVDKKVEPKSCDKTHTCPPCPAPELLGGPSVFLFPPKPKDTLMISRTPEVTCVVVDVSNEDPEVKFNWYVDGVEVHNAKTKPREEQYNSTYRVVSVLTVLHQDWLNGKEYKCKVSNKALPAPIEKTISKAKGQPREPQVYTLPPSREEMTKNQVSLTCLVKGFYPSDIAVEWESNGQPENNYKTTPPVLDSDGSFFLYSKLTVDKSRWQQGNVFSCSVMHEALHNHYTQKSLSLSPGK
light: B1 light
notes: as for B1
B12: S239N (antibody, human IgG1, kappa)
heavy: not shown
light: B1 light
notes: as for B1
B13: A327G (antibody, human IgG1, kappa)
heavy: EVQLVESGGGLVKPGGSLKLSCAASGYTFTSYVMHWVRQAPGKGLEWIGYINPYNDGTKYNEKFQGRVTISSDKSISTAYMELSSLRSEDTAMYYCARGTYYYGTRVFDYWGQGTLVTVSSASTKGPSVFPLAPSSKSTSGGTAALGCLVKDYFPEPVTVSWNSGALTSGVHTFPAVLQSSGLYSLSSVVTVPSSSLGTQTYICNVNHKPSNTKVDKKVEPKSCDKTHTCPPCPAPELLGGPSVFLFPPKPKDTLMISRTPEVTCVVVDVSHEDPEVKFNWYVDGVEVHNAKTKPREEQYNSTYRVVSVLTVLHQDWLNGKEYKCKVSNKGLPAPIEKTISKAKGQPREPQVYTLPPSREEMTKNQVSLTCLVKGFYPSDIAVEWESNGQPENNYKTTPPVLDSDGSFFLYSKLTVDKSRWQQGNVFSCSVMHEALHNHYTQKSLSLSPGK
light: B1 light
notes: as for B1
B14: S239Q (antibody, human IgG1, kappa)
heavy: not shown
light: B1 light
notes: as for B1
B15: L235D/S239D (antibody, human IgG1, kappa)
heavy: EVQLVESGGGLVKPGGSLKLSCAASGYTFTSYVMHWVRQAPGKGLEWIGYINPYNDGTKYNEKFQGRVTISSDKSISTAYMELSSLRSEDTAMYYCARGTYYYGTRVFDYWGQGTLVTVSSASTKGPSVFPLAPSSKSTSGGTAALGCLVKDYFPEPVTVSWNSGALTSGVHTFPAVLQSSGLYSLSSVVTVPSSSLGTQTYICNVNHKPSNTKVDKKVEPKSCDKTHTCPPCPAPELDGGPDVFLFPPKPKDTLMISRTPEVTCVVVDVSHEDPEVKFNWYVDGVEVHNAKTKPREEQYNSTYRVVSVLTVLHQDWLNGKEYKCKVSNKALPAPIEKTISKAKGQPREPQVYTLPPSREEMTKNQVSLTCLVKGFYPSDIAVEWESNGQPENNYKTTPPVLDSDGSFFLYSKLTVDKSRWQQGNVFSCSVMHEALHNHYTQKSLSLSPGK
light: B1 light
notes: as for B3
B16: S239D/H268D (antibody, human IgG1, kappa)
heavy: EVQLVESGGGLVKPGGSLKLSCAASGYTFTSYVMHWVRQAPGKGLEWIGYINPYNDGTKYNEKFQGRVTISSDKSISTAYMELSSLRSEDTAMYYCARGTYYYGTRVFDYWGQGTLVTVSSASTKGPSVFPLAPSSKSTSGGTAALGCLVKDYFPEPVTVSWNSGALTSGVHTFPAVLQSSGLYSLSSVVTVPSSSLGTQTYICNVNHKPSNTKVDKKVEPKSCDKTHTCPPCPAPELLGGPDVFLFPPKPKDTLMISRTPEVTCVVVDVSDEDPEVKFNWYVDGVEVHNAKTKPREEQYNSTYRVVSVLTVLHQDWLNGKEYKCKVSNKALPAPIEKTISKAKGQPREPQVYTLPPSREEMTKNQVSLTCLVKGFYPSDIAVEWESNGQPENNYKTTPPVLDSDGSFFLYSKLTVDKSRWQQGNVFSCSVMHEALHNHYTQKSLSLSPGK
light: B1 light
notes: as for B3

molecular target: T1, cynoFcγRIIb; assay: SPR

Binder	Fold vs WT IgG1 (Kd) [fold]	Fold vs WT IgG1 (off-rate) [fold]
B1	3.55	–
B2	–	0.864
B3	4.58	–
B4	1.79	–
B5	–	0.697
B6	1.47	1.8
B7	3.51	–
B8	–	0.648
B9	–	0.367
B10	1.86	1.96
B11	–	1.34
B12	–	0.66
B13	–	0.903
B14	–	0.401

molecular target: T2, mFcγRIIb; assay: SPR

Binder	Fold vs WT IgG1 (off-rate) [fold]	Fold vs WT IgG1 (Kd) [fold]
B2	0.877	–
B4	–	1.98
B5	0.971	–
B6	5.09	3.22
B8	0.833	–
B9	0.881	–
B10	0.968	0.902
B11	1.6	–
B12	0.61	–
B13	1.45	–
B14	1.74	–

molecular target: T7, cynoFcγRIIIa (Macaca fascicularis, UniProt Q8SPW2); assay: SPR
T7 construct: extracellular region, C-terminal His- and GST-tag; also called cynomolgus monkey FcγRIIIa
T7 sequence (Q8SPW2 17-208): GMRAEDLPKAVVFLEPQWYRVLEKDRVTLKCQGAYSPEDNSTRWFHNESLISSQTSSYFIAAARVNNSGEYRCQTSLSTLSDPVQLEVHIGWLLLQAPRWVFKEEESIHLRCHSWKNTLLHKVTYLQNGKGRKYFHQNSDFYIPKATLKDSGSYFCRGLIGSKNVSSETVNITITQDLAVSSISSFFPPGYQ

Binder	Fold vs WT IgG1 (Kd) [fold]	Fold vs WT IgG1 (off-rate) [fold]
B1	1.45	–
B2	–	0.983
B3	1.17	–
B4	7.66	2.73
B15	–	1.41
B16	8.68	3.62
B6	1.73	–
B7	1.04	–
B8	–	0.636
B9	–	0.124
B10	5.33	–
B11	–	0.99
B12	–	1.15
B13	–	0.443
B14	–	0.622

Molecular target: T3, mFcγRIV
Assay: SPR

Binder	Fold vs WT IgG1 (off-rate) [fold]	Fold vs WT IgG1 (Kd) [fold]
B2	1.08	–
B4	1.88	1
B15	1.57	–
B16	2.21	1.06
B6	–	0.443
B8	0.526	–
B9	0.454	–
B10	–	0.598
B11	1.02	–
B12	1.07	–
B13	1.23	–
B14	0.711	–

molecular target: T8, human FcγRI receptor protein (R&D Systems) (human, UniProt P12314 16-288); assay: SPR
T8 construct: also called soluble FcγRI; solFcγRI
T8 sequence (P12314 16-288 limits assumed): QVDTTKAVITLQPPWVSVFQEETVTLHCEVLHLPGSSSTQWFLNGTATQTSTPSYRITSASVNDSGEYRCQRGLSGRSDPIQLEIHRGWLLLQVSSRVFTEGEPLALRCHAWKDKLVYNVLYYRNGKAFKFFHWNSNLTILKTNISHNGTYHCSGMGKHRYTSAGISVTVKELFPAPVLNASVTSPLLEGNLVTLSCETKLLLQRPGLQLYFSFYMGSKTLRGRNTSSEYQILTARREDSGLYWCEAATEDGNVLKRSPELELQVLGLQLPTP

Binder	Fold vs WT IgG1 [fold]	Kd [nM]
B1	0.0268	12.3
B3	1.45	0.227
B5	1.66	0.198
B7	0.991	0.333

molecular target: T9, human FcγRIIIa (158V), His- and GST-tagged (human, UniProt P08637 17-208); assay: SPR
T9 construct: also called V158 FcγRIIIa; VIIIa; not shown: 6xHis and GST tags of the pTT5 vector
T9 sequence (P08637 17-208 F176V): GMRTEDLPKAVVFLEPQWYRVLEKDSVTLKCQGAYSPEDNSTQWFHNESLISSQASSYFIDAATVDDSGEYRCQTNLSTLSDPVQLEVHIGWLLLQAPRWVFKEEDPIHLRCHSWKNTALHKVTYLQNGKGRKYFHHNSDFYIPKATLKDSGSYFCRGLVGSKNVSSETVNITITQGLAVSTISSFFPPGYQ

Binder	Fold vs WT IgG1 [fold]	Kd [nM]
B1	0.00367	52200
B3	0.216	887
B5	0.00199	96300
B7	0.092	2080

molecular target: T4, human FcγRIIb receptor protein (R&D …); assay: SPR

Binder	Fold vs WT IgG1 [fold]	Kd [nM]	binding result
B1	1.02	1440	–
B2	–	–	no binding
B3	428	3.43	–
B4	22.3	65.9	–
B15	4.11	357	–
B16	14.4	102	–
B5	21.2	69.1	–
B6	7.68	191	–
B7	344	4.26	–
B8	0.417	3520	–
B9	12.1	121	–
B10	14.2	103	–
B11	1.17	1250	–
B12	1.45	1010	–
B13	0.353	4160	–
B14	0.729	2010	–

molecular target: T5, human FcγRIIa (131R), His- and …; assay: SPR

Binder	Fold vs WT IgG1 [fold]	Kd [nM]
B1	2.33	369
B2	1.58	544
B3	416	2.06
B5	16.7	51.3
B7	253	3.4
B8	0.307	2790
B11	1.79	481
B12	0.867	990
B13	0.319	2690
B14	0.853	1010

molecular target: T6, human FcγRIIa (131H), His- and …; assay: SPR

Binder	Fold vs WT IgG1 [fold]	Kd [nM]
B1	3.76	172
B3	1.71	378
B7	0.826	783
